Target: His-DnaB helicase (E. coli, UniProt P0ACB0 1-471)
Test: pull-down

His-DnaB helicase, sequence (P0ACB0 whole entry): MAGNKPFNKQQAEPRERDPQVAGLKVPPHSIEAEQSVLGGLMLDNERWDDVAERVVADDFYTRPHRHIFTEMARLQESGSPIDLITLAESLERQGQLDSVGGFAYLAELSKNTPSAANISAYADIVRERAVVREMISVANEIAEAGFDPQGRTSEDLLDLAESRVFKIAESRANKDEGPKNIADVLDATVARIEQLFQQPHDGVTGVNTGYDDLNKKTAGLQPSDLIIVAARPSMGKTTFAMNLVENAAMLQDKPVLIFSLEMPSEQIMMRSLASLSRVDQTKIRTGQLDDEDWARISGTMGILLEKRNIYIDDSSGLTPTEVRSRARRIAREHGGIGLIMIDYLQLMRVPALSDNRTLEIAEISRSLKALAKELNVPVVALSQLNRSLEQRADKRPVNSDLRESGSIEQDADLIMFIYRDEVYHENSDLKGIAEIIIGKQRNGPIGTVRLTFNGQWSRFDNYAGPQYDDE

binding result: binds
B1: Escherichia coli DnaA, ATP-bound form (ATP–DnaA), wild type (natural protein, E. coli, UniProt P03004 1-467, looked up)
chain: MSLSLWQQCLARLQDELPATEFSMWIRPLQAELSDNTLALYAPNRFVLDWVRDKYLNNINGLLTSFCGADAPQLRFEVGTKPVTQTPQAAVTSNVAAPAQVAQTQPQRAAPSTRSGWDNVPAPAEPTYRSNVNVKHTFDNFVEGKSNQLARAAARQVADNPGGAYNPLFLYGGTGLGKTHLLHAVGNGIMARKPNAKVVYMHSERFVQDMVKALQNNAIEEFKRYYRSVDALLIDDIQFFANKERSQEEFFHTFNALLEGNQQIILTSDRYPKEINGVEDRLKSRFGWGLTVAIEPPELETRVAILMKKADENDIRLPGEVAFFIAKRLRSNVRELEGALNRVIANANFTGRAITIDFVREALRDLLALQEKLVTIDNIQKTVAEYYKIKVADLLSKRRSRSVARPRQMAMALAKELTNHSLPEIGDAFGGRDHTTVLHACRKIEQLREESHDIKEDFSNLIRTLSS

— PMC9198467 (The Journal of Biological Chemistry, 2022)
